Results reported in patent publication US20220185875A1 (JIANGSU HENGRUI MEDICINE, published 2022).
Values belong to the binder of their own block, whether it stands above or below them.

Legend:
[1] = biological target: T1, biotin-hAng2-His (sinobiological, 10691-H07H) (human, UniProt O15123 19-496, biotin label, position not stated); test: ELISA, biotin-hAng2-His captured on streptavidin plate, OD450
T1 construct: Bought reagent; also called Human ANG2-his; human ANG2
T1 sequence (looked up): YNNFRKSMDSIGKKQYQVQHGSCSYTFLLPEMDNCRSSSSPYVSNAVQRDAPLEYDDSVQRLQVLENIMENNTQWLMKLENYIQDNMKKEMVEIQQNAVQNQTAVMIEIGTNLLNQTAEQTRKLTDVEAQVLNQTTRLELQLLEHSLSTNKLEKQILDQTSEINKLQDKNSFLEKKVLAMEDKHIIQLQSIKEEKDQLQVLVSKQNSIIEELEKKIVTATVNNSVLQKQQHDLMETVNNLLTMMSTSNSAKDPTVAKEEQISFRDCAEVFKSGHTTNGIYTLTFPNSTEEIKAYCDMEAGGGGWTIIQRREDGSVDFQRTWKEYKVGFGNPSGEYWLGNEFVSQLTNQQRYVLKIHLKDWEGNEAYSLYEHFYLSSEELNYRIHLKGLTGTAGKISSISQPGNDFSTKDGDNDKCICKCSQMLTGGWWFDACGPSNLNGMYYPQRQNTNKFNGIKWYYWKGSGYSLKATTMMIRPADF
Protocol: (§1) The plate was coated with streptavidin (abcam, ab123480) at a concentration of 1 ng/μl, 100 μl per well overnight at 4° C., and then the supernatant was removed. 250 μl 5% skimmed milk powder was added for blocking at 37° C. for 1 h, and the plate was washed with a washing machine for 3 times. 0.5 ng/μl biotin-hAng2-His (sinobiological, 10691-H07H) was added and incubated at 37° C. for 1 h. The plate was washed with a washing machine for 3 times, and 100 μl 1:1 diluted phage supernatant was added and incubated at 37° C. for 1 h. The plate was washed with a washing machine for 3 times, and 100 μl 1:10000 diluted anti-M13-HRP (GE, 27-9421-01) was added to each well and incubated at 37° C. for 1 h. The plate was washed with a washing machine for 3 times, and 100 μl TMB was added to each well for color development. After 5-10 min, 100 μl 1 M H₂SO₄ was added to each well to stop the color development, and the OD450 value was measured with a microplate reader.

human ANG1 (RD,923-AN) = biological target: T2, human ANG1 (RD,923-AN) (human, UniProt Q15389 20-498, limits assumed); test: ELISA, plate coated with human ANG1, OD450
T2 sequence (looked up): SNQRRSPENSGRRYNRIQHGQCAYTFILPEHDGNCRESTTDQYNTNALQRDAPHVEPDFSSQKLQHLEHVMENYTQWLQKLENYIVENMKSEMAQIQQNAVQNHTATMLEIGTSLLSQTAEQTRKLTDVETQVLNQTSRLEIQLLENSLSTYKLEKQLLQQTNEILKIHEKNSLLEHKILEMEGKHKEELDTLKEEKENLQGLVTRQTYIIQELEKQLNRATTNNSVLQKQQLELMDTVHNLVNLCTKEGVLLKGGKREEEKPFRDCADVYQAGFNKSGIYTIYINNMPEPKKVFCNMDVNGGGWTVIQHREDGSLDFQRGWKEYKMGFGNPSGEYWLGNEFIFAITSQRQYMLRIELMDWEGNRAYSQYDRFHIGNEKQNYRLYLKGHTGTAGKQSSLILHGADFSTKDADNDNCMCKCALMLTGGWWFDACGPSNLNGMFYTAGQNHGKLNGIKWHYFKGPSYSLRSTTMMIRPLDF
Protocol: as §1, with “human ANG1 (RD,923-AN)” for “streptavidin (abcam, ab123480)”, “C. The” for “C., and then the”, “removed and” for “removed.”, “blocking” for “blocking at 37° C. for 1 h, and the plate was washed with a washing machine for 3 times. 0.5 ng/μl biotin-hAng2-His (sinobiological, 10691-H07H) was added and incubated”, “M13-HRP” for “anti-M13-HRP (GE, 27-9421-01)”

[2] = biological target: T3, human ANG2 with human Fc tag (huANG2-Fc) (human, biotin label (Dojindo kit LK03, position not stated) in Test Examples 3 and 4; unlabelled in Test Example 5); test: competition ELISA: Tie2-Fc coated, biotin-huANG2-Fc 0.15 ug/ml premixed with antibody; blocking of ANG2 binding to Tie2
T3 construct: It starts at YNNFRK, without a signal peptide; also called bio-huANG2-Fc; human Ang2-Fc
Protocol: Specific methods: the ELISA plate was coated with Tie2-Fc (SEQ ID NO: 2, 3 μg/ml dissolved in PBS, 100 μl/well) overnight at 4° C. and the coating solution was removed, 5% skimmed milk blocking solution diluted with PBS was added at 200 μl/well and incubated in a 37° C. incubator for 2 h for blocking. After the blocking was completed, the blocking solution was discarded and the plate was washed with PBST buffer (PBS containing 0.05% tween-20, pH 7.4) for 5 times. […] The solution was mixed well and then incubated at 37° C. for 15 min, added to the ELISA plate and incubated at 37° C. for 1 h. After the incubation was completed, the reaction solution in the ELISA plate was discarded and the plate was washed 5 times with PB ST. Then 1:4000 diluted streptavidin-peroxidase polymer (Sigma, 52438-250UG) was added at 100 μl/well and incubated at 37° C. for 1 h. After washing the plate 5 times with PBST, 100 μl/well TMB chromogenic substrate (KPL, 52-00-03) was added and incubated at room temperature for 3-10 min, and 1 M H₂SO₄ was added at 100 μl/well to stop the reaction.

EC50 (read off the curve) [1]: ~0.08 nM
binding result (human ANG1 (RD,923-AN)): no binding (tested: 100 nM)
IC50 [2]: 0.0393 nM
B1: Llama-derived single domain antibody nano14 (VHH)
VHH: DVQLQESGGGLVQPGGSLRLSCAASGFTFDDFGMSWVRQAPGKGLEWVSSITWNGGSTYYADSVKGRFTISRDNAKNTVYLQMNSLKPEDTAIYYCNADHPQGYWGQGTQVTVSS

EC50 (read off the curve) [1]: ~0.06 nM
binding result (human ANG1 (RD,923-AN)): no binding (tested: 100 nM)
IC50 [2]: 0.0281 nM
B2: Llama-derived single domain antibody nano15 (VHH)
VHH: DVQLQESGGGLVQPGGSLRLSCAASGFTFNSYAMSWVRQAPGKGLEWVSTINSGGGRTGYADSVKGRFTISRDNAKNTLYLQMNSLKPEDTAIYYCNADHPQGYWGQGTQVTVSS
